Source: paper PMC3136132

Target: FMRP (UniProt Q06787)
Test: biotin-RNA affinity capture
Details: 50 mM Tris-HCl pH 7.4, 2 mM MgCl2, 150 mM KCl, 1 mM EDTA, 1 mM DTT (Schaeffer buffer without tRNA, supplemented with 125 mM NaCl); SoftLink avidin resin …; scale: fold more RNA needed than eEF-1A mRNA for comparable binding

Work on BC1 RNA, annealed yielded a fold more RNA needed than eEF-1A mRNA of 100.
